Test [1] has as its target T1, human CD38 (full length, on cells) (human, UniProt P28907 1-300). The test can be described thus: cell-based or functional assay.
Test [2] deals with T2, Cynomolgus monkey CD38 (on T cells) (Cynomolgus monkey, UniProt Q5VAN0 1-301).
T2 construct: whole, on cells; also called cyno CD38
The test can be described thus: flow cytometry titration on cynomolgus T cells, gated on CD4-positive and on CD8-positive cells. For orientation: Flow cytometry measures light scatter and fluorescence of single cells or particles in a stream.
Protocol: (§1) Unbound primary antibody was removed by washing followed by staining with a secondary antibody (5 μg/ml) 30 minutes on ice. All samples were stained in triplicates with appropriate CD3, CD4 and CD8 cross-reactive antibodies. Samples were measured by flow cytometry. For data analysis live cells were gated using FSC vs SSC parameters during sample acquisition. Mean fluorescence intensities (MFI) of stained cells were plotted on an XY chart, graphing MFI against the log of the concentration and the data fit to a non-linear regression curve from which the EC50 was calculated.

In test [3] the target is T3, recombinant human CD38 his tagged (extracellular domain) (human, UniProt P28907 43-300).
T3 construct: also called rhCD38; rhCD38-his; not shown: Histidine tag
The test can be described thus: SPR Biacore 2000; IgG1 captured, rhCD38-his as analyte. In general terms: SPR reads the build-up and loss of mass on a sensor chip optically.

Test [4] addresses T1, human CD38 (full length, on cells). Kind of test: cell-based or functional assay. This is another data set of the same source.
For test [5] the target is unchanged. Kind of test: flow cytometry titration on human cells, gated on CD4-positive cells.
Protocol: as §1
Test [6] shares this target. Kind of test: flow cytometry titration on human cells, gated on CD8-positive cells.
Protocol: as §1
In test [7] the target is T3, recombinant human CD38 his tagged …. The test can be described thus: Octet BLI, avidity; rhCD38-his on Ni-NTA sensor, IgG1 in solution.
Protocol: Avidity binding measurements of anti-CD38 Antibodies: Ni-NTA sensors were equilibrated off-line in assay buffer for 30 minutes and then monitored on-line for 60 seconds for baseline establishment. […] Then the antibody was associated at different concentrations (as described in FIGS. 25 and 30) for 30-50 minutes. Afterwards they were transferred to assay buffer for 20-30 min for off-rate measurement. Kinetics data were fit using a 1:1 binding model in the data analysis software provided by ForteBio.
The target is the same in test [8]. The test can be described thus: Octet BLI, affinity, monovalent human CD38-HIS; yeast produced. Background: BLI is a label-free optical method that tracks binding on a fibre tip over time.
Test [9] has the same target. Kind of test: summary, human CD38 extracellular protein.
The target is the same in test [10]. Kind of test: Octet BLI, affinity, monovalent human CD38-HIS; IgG1.
Test [11] deals with T2, Cynomolgus monkey CD38 (on T cells). Kind of test: flow cytometry titration on cynomolgus T cells, gated on CD8-positive cells.
The target in test [12] is T1, human CD38 (full length, on cells). The test can be described thus: flow cytometry titration on human PBMC, gated on CD8-positive cells.
Test [13] concerns the target T3, recombinant human CD38 his tagged …. Kind of test: Octet BLI affinity, rhCD38.
For test [14], the target named is T1, human CD38 (full length, on cells). The test can be described thus: flow cytometry titration on human PBMC, gated on CD4-positive cells.
Test [15] shares this target. The test can be described thus: flow cytometry, binding to Daudi cells.
Test [16] deals with T2, Cynomolgus monkey CD38 (on T cells). The test can be described thus: flow cytometry titration on cynomolgus T cells, gated on CD4-positive cells.
The target in test [17] is T1, human CD38 (full length, on cells). Kind of test: cell-based or functional assay. The source holds these as a separate data set.
Test [18] has as its target T3, recombinant human CD38 his tagged …. Kind of test: SPR Biacore affinity, rhCD38-his.
Protocol: (§2) Anti-human antibody was initially immobilised across all flow cells in analysis buffer (pH 7.4, 10mM HEPES, 150mM NaCl, 3mM EDTA, 0.05% Tween 20) to an RU of between 12,000-14,000 over 10 minutes. […] Dissociation was performed in analysis buffer over 10 minutes. Regeneration steps between sample concentrations were performed in 3M MgCl₂, three times for 0.5 minutes. A flow rate of 25 μl/min was maintained throughout the process. Kinetics data were fit using a global fit on the analysis software provided by Biacore with reference subtraction.
In test [19] the target is T1, human CD38 (full length, on cells). The test can be described thus: cell-based or functional assay. The source holds these as a separate data set.
Test [20] has as its target T3, recombinant human CD38 his tagged …. Kind of test: SPR Biacore affinity, rhCD38-his. The source holds these as a separate data set.
Protocol: as §2
Test [21] concerns the target T1, human CD38 (full length, on cells). The test can be described thus: flow cytometry, binding to Daudi cells. The source holds these as a separate data set.
Test [22] has the same target. The test can be described thus: cell-based or functional assay. The source holds these as a separate data set.
Test [23] deals with T3, recombinant human CD38 his tagged …. The test can be described thus: Octet BLI affinity, rhCD38; Octet value of Table 5 (variant comparison); Table 1A gives 3.38E-09 for IgG1.

Substitutions are numbered along the chain they refer to. Where “and” joins values, the source holds several entries; their conditions need not be identical. Equal entries are not always repeated. Where two headings read alike, the source gives them in different places.

T2 sequence (Q5VAN0 whole entry): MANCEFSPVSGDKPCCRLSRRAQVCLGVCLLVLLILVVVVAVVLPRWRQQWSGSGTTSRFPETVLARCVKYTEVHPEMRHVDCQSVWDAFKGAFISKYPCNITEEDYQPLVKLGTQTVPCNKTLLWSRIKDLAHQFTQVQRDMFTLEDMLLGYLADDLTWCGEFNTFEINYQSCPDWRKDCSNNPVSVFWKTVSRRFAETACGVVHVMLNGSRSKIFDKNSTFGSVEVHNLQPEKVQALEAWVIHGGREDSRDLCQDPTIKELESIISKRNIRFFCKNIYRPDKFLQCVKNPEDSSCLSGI

B1: aCD38-a-306 (human IgG1) (antibody, V domains shown)
VH: not shown
VL: DIQMTQSPSSLSASVGDRVTITCRASQSISSYLNWYQQKPGKAPKLLIYGASSLQSGVPSRFSGSGSGTDFTLTISSLQPEDFATYYCQQRSSTPITFGGGTKVEIK
notes: Human IgG1
What is called EC50 (read off the curve) is the concentration that produces a half-maximal response. B1: in test [1], the “CDC EC50, Daudi cells, 10% complement” value was 0.19 µg/mL and the “CDC max. lysis, Daudi cells, 10% complement” value is 16.9%. Besides, the binding result in [2] is given as “no binding (tested: about 20 µg/ml (log 1.3))”. Also, in test [3], the Kd was determined as 1.2 nM. For the same molecule, in test [4], the “ADCC EC50, Daudi target cells” value is 0.0013 µg/mL and the “ADCC max. lysis, Daudi target cells” value is 43%. In addition, in test [5], the “EC50 (read off the curve)” value is around 0.4 µg/mL. Also, in test [6], the “EC50 (read off the curve)” value was around 0.2 µg/mL. In addition, the Kd in test [7] came to 0.0735 nM.

B2: aCD38-a-306 (yeast produced) (antibody, V domains shown)
VH: not shown
VL: B1 VL
Regarding B2, the Kd in [8] stood at 48 nM.

B3: aCD38-a-327 (human IgG1) (antibody, V domains shown)
VH: QVQLQESGPGLVKPSQTLSLTCTVSGGSISSGGYYWSWIRQHPGKGLEWIGYIYYSGSTYYNPSLKSRVTISVDTSKNQFSLKLSSVTAADTAVYYCARAKSELVLPYYYYMDVWGKGTTVTVSS
VL: not shown
notes: Human IgG1
For the molecule B3, the Kd in [3] was 1 nM; in test [9] it was around 1 nM; in test [10], 2.3 nM; in test [7], 0.0181 nM. Besides, the “ADCC EC50, Daudi target cells” value in test [4] is 0.03 µg/mL. Also, the “ADCC max. lysis, Daudi target cells” value in test [4] turned out to be 55%.

B4: aCD38-b-348 (human IgG1) (antibody, V domains shown)
VH: QLQLQESGPGLVKPSETLSLTCTVSGGSISSSDYYWGWIRQPPGKGLEWIGSIYYSGSTYYNPSLKSRVTISVDTSKNQFSLKLSSVTAADTAVYYCARGQYSSGWYAYPFDMWGQGTMVTVSS
VL: EIVLTQSPGTLSLSPGERATLSCRASQSVRSSYLAWYQQKPGQAPRLLIYGASSRATGIPDRFSGSGSGTDFTLTISRLEPEDFAVYYCQQDGNVYTFGGGTKVEIK
notes: Human IgG1
For orientation: EC50 means the concentration that produces a half-maximal response. On to B4, for which the “CDC EC50, Daudi cells, 10% complement” value in [1] was 0.17 µg/mL and 0.34 µg/mL and 0.26 µg/mL. Moreover, the “EC50 (read off the curve)” value in test [11] is around 0.8 µg/mL; in [12], around 0.4 nM; in test [14], around 0.4 nM; in test [16], around 0.7 µg/mL. Moreover, the Kd was determined as 5.79 nM in test [13]; 2 nM in [3]; 2 nM in test [18]; 8.81 nM in test [10]; 0.177 nM in test [7]. Also, in [15], the EC50 turned out to be 0.341 µg/mL. In [15], the “Max MFI” value came to 2320 MFI. Also, the “CDC EC50, Raji cells, 10% complement” value in test [17] is 0.3 µg/mL. In [17], the “CDC EC50, Raji cells, 10% complement (repeat)” value amounted to 0.17 µg/mL. Also, the “ADCC EC50, Daudi target cells” value in test [4] was 0.00032 µg/mL and 0.0008 µg/mL and 0.00042 µg/mL. For the same molecule, the “ADCC target lysis EC50” value in [19] amounted to 0.0059 µg/mL. In addition, the “ADCC target lysis, max. % lysis” value in [19] came to 44%.

B5: aCD38-b-329 (human IgG1) (antibody, V domains shown)
VH: B4 VH
VL: B4 VL with N94A, Y96F
notes: Human IgG1
Consider B5, for which the Kd in [20] is 0.62 nM; in test [3] it was 0.62 nM; in [23] it was 2.38 nM; in test [9] it was around 1 nM; in [10], 3.38 nM. In addition, in test [21], it took 0.734 µg/mL to reach a half-maximal effect (EC50). Besides, in test [21], the “Max MFI” value was determined as 2510 MFI. For the same molecule, the “ADCC target lysis EC50” value in [22] was determined as 0.0062 µg/mL. Besides, the “ADCC target lysis, max. % lysis” value in test [22] amounted to 49%. Also, in test [4], the “ADCC EC50, Daudi target cells” value was 0.011 µg/mL and 0.0062 µg/mL.

Values taken from patent publication US20200190209A1 (BLACK BELT THERAPEUTICS, published 2020).
